Experimental data as given in patent publication US20240117018A1.

How the values were obtained:
Assay in all cases: cell-based or functional assay
[1] = target: HIV-1 Env of pseudovirus Q769.d22 (HIV-1)
[2] = target: HIV-1 Env of pseudovirus Du156.12 (HIV-1)
[3] = target: HIV-1 Env of pseudovirus 7030102001E5(Rev-) (HIV-1)
[4] = target: HIV-1 Env of pseudovirus ZM109F.PB4 (HIV-1)
[5] = target: HIV-1 Env of pseudovirus Ce1086_B2 (HIV-1)
[6] = target: HIV-1 Env of pseudovirus THRO4156.18 (HIV-1)
[7] = target: HIV-1 Env of pseudovirus HIV-16055-2.3 (HIV-1)
[8] = target: HIV-1 Env of pseudovirus QH0692.42 (HIV-1)
[9] = target: HIV-1 Env of pseudovirus 1012_11_TC21_3257 (HIV-1)
[10] = target: HIV-1 Env of pseudovirus HIV-0013095-2.11 (HIV-1)
[11] = target: HIV-1 Env of pseudovirus T250-4 (HIV-1)
[12] = target: HIV-1 Env of pseudovirus Du172.17 (HIV-1)
[13] = target: HIV-1 Env of pseudovirus 1394C9G1(Rev-) (HIV-1)
[14] = target: HIV-1 Env of pseudovirus TRJO4551.58 (HIV-1)
[15] = target: HIV-1 Env of pseudovirus 6240_08_TA5_4622 (HIV-1)
[16] = target: HIV-1 Env of pseudovirus 0260.v5.c36 (HIV-1)
[17] = target: HIV-1 Env of pseudovirus ZM214M.PL15 (HIV-1)
[18] = target: HIV-1 Env of pseudovirus ZM249M.PL1 (HIV-1)
[19] = target: HIV-1 Env of pseudovirus HIV-001428-2.42 (HIV-1)
[20] = target: HIV-1 Env of pseudovirus Ce704809221_1B3 (HIV-1)
[21] = target: HIV-1 Env of pseudovirus Q23.17 (HIV-1)
[22] = target: HIV-1 Env of pseudovirus CNE58 (HIV-1)
[23] = target: HIV-1 Env of pseudovirus WEAU_d15_410_787 (HIV-1)
[24] = target: HIV-1 Env of pseudovirus 1006_11_C3_1601 (HIV-1)
[25] = target: HIV-1 Env of pseudovirus HIV-16845-2.22 (HIV-1)
[26] = target: HIV-1 Env of pseudovirus 1056_10_TA11_1826 (HIV-1)
[27] = target: HIV-1 Env of pseudovirus Ce1176_A3 (HIV-1)
[28] = target: HIV-1 Env of pseudovirus 3365.v2.c2 (HIV-1)
[29] = target: HIV-1 Env of pseudovirus CAP210.2.00.E8 (HIV-1)
[30] = target: HIV-1 Env of pseudovirus CNE8 (HIV-1)
[31] = target: HIV-1 Env of pseudovirus Ce0393_C3 (HIV-1)
[32] = target: HIV-1 Env of pseudovirus CNE21 (HIV-1)
[33] = target: HIV-1 Env of pseudovirus 249M B10 (HIV-1)
[34] = target: HIV-1 Env of pseudovirus 246F C1G (HIV-1)
[35] = target: HIV-1 Env of pseudovirus RHPA4259.7 (HIV-1)
[36] = target: HIV-1 Env of pseudovirus Ce703010054_2A2 (HIV-1)

## N49P7.1 (antibody)
[1]
  IC50: 0.044 µg/mL
  IC80: 0.163 µg/mL
  MPI: 100
[2]
  IC50: 0.045 µg/mL
  IC80: 0.131 µg/mL
  MPI: 100
[3]
  IC50: 0.11 µg/mL
  IC80: 0.498 µg/mL
  MPI: 100
[4]
  IC50: 0.055 µg/mL
  IC80: 0.199 µg/mL
  MPI: 100
[5]
  IC50: 0.121 µg/mL
  IC80: 0.742 µg/mL
  MPI: 99
[6]
  IC50: 3.07 µg/mL
  IC80: 12.6 µg/mL
  MPI: 98
[7]
  IC50: 0.088 µg/mL
  IC80: 0.318 µg/mL
  MPI: 100
[8]
  IC50: 0.764 µg/mL
  IC80: 2.71 µg/mL
  MPI: 100
[9]
  IC50: 0.063 µg/mL
  IC80: 0.176 µg/mL
  MPI: 100
[10]
  IC50: 0.105 µg/mL
  IC80: 0.374 µg/mL
  MPI: 100
[11]
  IC50: 2.27 µg/mL
  IC80: 24.7 µg/mL
  MPI: 89
[12]
  IC50: 0.185 µg/mL
  IC80: 0.748 µg/mL
  MPI: 100
[13]
  IC50: 4.37 µg/mL
  IC80: 30.9 µg/mL
  MPI: 88
[14]
  IC50: 0.156 µg/mL
  IC80: 0.529 µg/mL
  MPI: 100
[15]
  IC50: 0.509 µg/mL
  IC80: 1.95 µg/mL
  MPI: 100
[16]
  IC50: 0.497 µg/mL
  IC80: 1.51 µg/mL
  MPI: 100
[17]
  IC50: 0.257 µg/mL
  IC80: 0.853 µg/mL
  MPI: 100
[18]
  IC50: 0.071 µg/mL
  IC80: 0.239 µg/mL
  MPI: 100
[19]
  IC50: 0.009 µg/mL
  IC80: 0.029 µg/mL
  MPI: 100
[20]
  IC50: 0.211 µg/mL
  IC80: 1.35 µg/mL
  MPI: 100
[21]
  IC50: 0.077 µg/mL
  IC80: 0.208 µg/mL
  MPI: 100
[22]
  IC50: 0.049 µg/mL
  IC80: 0.107 µg/mL
  MPI: 100
[23]
  IC50: 0.058 µg/mL
  IC80: 0.142 µg/mL
  MPI: 100
[24]
  IC50: 0.061 µg/mL
  IC80: 0.193 µg/mL
  MPI: 100
[25]
  IC50: 1.07 µg/mL
  IC80: 5.4 µg/mL
  MPI: 100
[26]
  IC50: 0.171 µg/mL
  IC80: 0.603 µg/mL
  MPI: 100
[27]
  IC50: 0.279 µg/mL
  IC80: 1.01 µg/mL
  MPI: 100
[28]
  IC50: 0.088 µg/mL
  IC80: 0.289 µg/mL
  MPI: 100
[29]
  IC50: 2.03 µg/mL
  IC80: 7.3 µg/mL
  MPI: 99
[30]
  IC50: 0.048 µg/mL
  IC80: 0.167 µg/mL
  MPI: 100
[31]
  IC50: 0.23 µg/mL
  IC80: 1.02 µg/mL
  MPI: 100
[32]
  IC50: 1.58 µg/mL
  IC80: 12.2 µg/mL
  MPI: 96
[33]
  IC50: 0.053 µg/mL
  IC80: 0.225 µg/mL
  MPI: 100
[34]
  IC50: 0.049 µg/mL
  IC80: 0.165 µg/mL
  MPI: 100
[35]
  IC50: 0.108 µg/mL
  IC80: 0.292 µg/mL
  MPI: 100
[36]
  IC50: 0.085 µg/mL
  IC80: 0.364 µg/mL
  MPI: 100

## VRC07 (antibody)
[1]
  IC50: 0.018 µg/mL
  IC80: 0.087 µg/mL
[2]
  IC50: 0.041 µg/mL
  IC80: 0.149 µg/mL
[3]
  IC50: 0.205 µg/mL
  IC80: 0.911 µg/mL
[4]
  IC50: 0.112 µg/mL
  IC80: 0.389 µg/mL
[5]
  IC50: 0.128 µg/mL
  IC80: 0.84 µg/mL
[6]
  IC50: 2.4 µg/mL
  IC80: 12.2 µg/mL
[7]
  IC50: 0.025 µg/mL
  IC80: 0.135 µg/mL
[8]
  IC50: 0.5 µg/mL
  IC80: 1.86 µg/mL
[9]
  IC50: 0.014 µg/mL
  IC80: 0.045 µg/mL
[10]
  IC50: 0.017 µg/mL
  IC80: 0.057 µg/mL
[12]
  IC50: 0.796 µg/mL
  IC80: 3.66 µg/mL
[13]
  IC50: 0.112 µg/mL
  IC80: 0.368 µg/mL
[14]
  IC50: 0.032 µg/mL
  IC80: 0.125 µg/mL
[15]
  IC50: 0.448 µg/mL
  IC80: 1.54 µg/mL
[16]
  IC50: 0.448 µg/mL
  IC80: 1.62 µg/mL
[17]
  IC50: 0.198 µg/mL
  IC80: 1.42 µg/mL
[18]
  IC50: 0.041 µg/mL
  IC80: 0.145 µg/mL
[19]
  IC50: 0.004 µg/mL
  IC80: 0.016 µg/mL
[20]
  IC50: 0.273 µg/mL
  IC80: 1.14 µg/mL
[21]
  IC50: 0.081 µg/mL
  IC80: 0.236 µg/mL
[22]
  IC50: 0.11 µg/mL
  IC80: 0.298 µg/mL
[23]
  IC50: 0.034 µg/mL
  IC80: 0.115 µg/mL
[24]
  IC50: 0.015 µg/mL
  IC80: 0.046 µg/mL
[25]
  IC50: 1.21 µg/mL
  IC80: 6.15 µg/mL
[26]
  IC50: 0.239 µg/mL
  IC80: 1.11 µg/mL
[27]
  IC50: 0.52 µg/mL
  IC80: 2.6 µg/mL
[28]
  IC50: 0.038 µg/mL
  IC80: 0.109 µg/mL
[29]
  IC50: > 50 µg/mL
  IC80: > 50 µg/mL
[31]
  IC50: 0.182 µg/mL
  IC80: 0.634 µg/mL
[32]
  IC50: 0.05 µg/mL
  IC80: 0.222 µg/mL
[33]
  IC50: 0.052 µg/mL
  IC80: 0.204 µg/mL
[34]
  IC50: 0.286 µg/mL
  IC80: 1.04 µg/mL
[35]
  IC50: 0.017 µg/mL
  IC80: 0.048 µg/mL
[36]
  IC50: 0.19 µg/mL
  IC80: 0.912 µg/mL
